Assay results published in the supplement of paper PMC7125110.
± gives the standard error. For some of these results: Fewer inactive variants are shown than the library holds.

B1: glmS ribozyme (parent)
chain: AUAAAAGCGCCAGAACUACAGAAAUGUAGUUGACGAGGAGGAGGUUUAUCGAAUUUUCGGCGGAUGCCUCCAAA

Key:
Conditions in all cases: with glucosamine-6-phosphate
glucosamine-6-phosphate [1] = variants of: B1; assay: kcat; higher = faster cleavage; RNA array
Method in brief: (§1)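 Glucosamine-6-phosphate (40 μM to 10 mM) in HEPES/KCl/Mg(OAc)2 buffer was flowed over sequenced MiSeq chips, and tiles were imaged over ~14 h. Barcoded ribozyme variants there had been transcribed in situ by E. coli RNA polymerase and were tracked through a hybridised Cy3 probe at 37 °C. One- or two-exponential decay fits to per-tile medians, normalised to baseline and to non-cleaving reference variants, gave kobs. kcat and KM came from weighted Michaelis–Menten fits across concentrations.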

glucosamine-6-phosphate [2] = variants of: B1; assay: self-cleavage kobs at 640 uM GlcN6P; higher = faster cleavage; RNA array
Method in brief: as §1

glucosamine-6-phosphate [3] = variants of: B1; assay: self-cleavage kobs at 2500 uM GlcN6P; higher = faster cleavage; RNA array
Method in brief: as §1

glucosamine-6-phosphate [4] = variants of: B1; assay: self-cleavage kobs at 10000 uM GlcN6P; higher = faster cleavage; RNA array
Method in brief: as §1

glucosamine-6-phosphate [5] = variants of: B1; assay: KM; higher = weaker cofactor use; RNA array
Method in brief: as §1

glucosamine-6-phosphate [6] = variants of: B1; assay: self-cleavage kobs at 40 uM GlcN6P; higher = faster cleavage; RNA array
Method in brief: as §1

glucosamine-6-phosphate [7] = variants of: B1; assay: self-cleavage kobs at 160 uM GlcN6P; higher = faster cleavage; RNA array
Method in brief: as §1

G40A C70G
kcat (glucosamine-6-phosphate [1]): 0.00031 ± 9.1e-05 s⁻¹ | self-cleavage kobs at 640 uM GlcN6P (glucosamine-6-phosphate [2]): 0.000105 ± 1.9e-05 s⁻¹ | self-cleavage kobs at 2500 uM GlcN6P (glucosamine-6-phosphate [3]): 0.000394 ± 0.00012 s⁻¹ | self-cleavage kobs at 10000 uM GlcN6P (glucosamine-6-phosphate [4]): 0.000244 ± 6.4e-05 s⁻¹

C61A C67U C71U
kcat (glucosamine-6-phosphate [1]): 5.2e-05 ± 2.5e-05 s⁻¹ | self-cleavage kobs at 640 uM GlcN6P (glucosamine-6-phosphate [2]): 8.57e-05 ± 2.8e-05 s⁻¹

U56C U65G
kcat (glucosamine-6-phosphate [1]): 0.000503 ± 9.7e-05 s⁻¹ | self-cleavage kobs at 2500 uM GlcN6P (glucosamine-6-phosphate [3]): 0.000206 ± 7.7e-05 s⁻¹ | self-cleavage kobs at 10000 uM GlcN6P (glucosamine-6-phosphate [4]): 0.00041 ± 8.6e-05 s⁻¹

U46G C50U U69A
kcat (glucosamine-6-phosphate [1]): 3.77e-05 ± 1.1e-05 s⁻¹ | self-cleavage kobs at 10000 uM GlcN6P (glucosamine-6-phosphate [4]): 4.11e-05 ± 1.3e-05 s⁻¹

C11G C67G
kcat (glucosamine-6-phosphate [1]): 3.76e-05 ± 1.2e-05 s⁻¹ | self-cleavage kobs at 640 uM GlcN6P (glucosamine-6-phosphate [2]): 5.1e-05 ± 1.3e-05 s⁻¹

G7A C68U
kcat (glucosamine-6-phosphate [1]): 2.24e-05 ± 5.5e-06 s⁻¹

C11G C70U
kcat (glucosamine-6-phosphate [1]): 1.5e-05 ± 6.7e-07 s⁻¹ | KM (glucosamine-6-phosphate [5]): 138 ± 61 µM

C16A U30A
kcat (glucosamine-6-phosphate [1]): 0.00139 ± 0.00047 s⁻¹ | self-cleavage kobs at 40 uM GlcN6P (glucosamine-6-phosphate [6]): 3.95e-05 ± 8.3e-06 s⁻¹ | self-cleavage kobs at 160 uM GlcN6P (glucosamine-6-phosphate [7]): 0.000164 ± 3e-05 s⁻¹ | self-cleavage kobs at 640 uM GlcN6P (glucosamine-6-phosphate [2]): 0.000316 ± 5.7e-05 s⁻¹ | self-cleavage kobs at 2500 uM GlcN6P (glucosamine-6-phosphate [3]): 0.00154 ± 0.00022 s⁻¹ | self-cleavage kobs at 10000 uM GlcN6P (glucosamine-6-phosphate [4]): 0.00109 ± 0.00017 s⁻¹

A14U C50G C68A
kcat (glucosamine-6-phosphate [1]): 7.35e-05 ± 2e-05 s⁻¹ | self-cleavage kobs at 40 uM GlcN6P (glucosamine-6-phosphate [6]): 5.1e-05 ± 1.3e-05 s⁻¹ | self-cleavage kobs at 640 uM GlcN6P (glucosamine-6-phosphate [2]): 0.000122 ± 2.5e-05 s⁻¹ | self-cleavage kobs at 2500 uM GlcN6P (glucosamine-6-phosphate [3]): 7.66e-05 ± 2.9e-05 s⁻¹ | self-cleavage kobs at 10000 uM GlcN6P (glucosamine-6-phosphate [4]): 5.56e-05 ± 1.5e-05 s⁻¹

A12G G41C
kcat (glucosamine-6-phosphate [1]): 0.000171 ± 2.4e-05 s⁻¹ | self-cleavage kobs at 40 uM GlcN6P (glucosamine-6-phosphate [6]): < 1e-05 s⁻¹ | self-cleavage kobs at 2500 uM GlcN6P (glucosamine-6-phosphate [3]): 3.14e-05 ± 1.1e-05 s⁻¹ | self-cleavage kobs at 10000 uM GlcN6P (glucosamine-6-phosphate [4]): 8.02e-05 ± 1.1e-05 s⁻¹

U57A U69C
kcat (glucosamine-6-phosphate [1]): 0.000113 ± 1.4e-05 s⁻¹ | KM (glucosamine-6-phosphate [5]): 1640 ± 640 µM | self-cleavage kobs at 2500 uM GlcN6P (glucosamine-6-phosphate [3]): 7.81e-05 ± 1.8e-05 s⁻¹ | self-cleavage kobs at 10000 uM GlcN6P (glucosamine-6-phosphate [4]): 9.38e-05 ± 1.8e-05 s⁻¹

C16A A39G
kcat (glucosamine-6-phosphate [1]): 0.00326 ± 0.00026 s⁻¹ | KM (glucosamine-6-phosphate [5]): 2130 ± 240 µM | self-cleavage kobs at 40 uM GlcN6P (glucosamine-6-phosphate [6]): 6.75e-05 ± 1.4e-05 s⁻¹ | self-cleavage kobs at 160 uM GlcN6P (glucosamine-6-phosphate [7]): 0.000212 ± 5.3e-05 s⁻¹ | self-cleavage kobs at 640 uM GlcN6P (glucosamine-6-phosphate [2]): 0.000731 ± 0.00012 s⁻¹ | self-cleavage kobs at 2500 uM GlcN6P (glucosamine-6-phosphate [3]): 0.00177 ± 0.00034 s⁻¹ | self-cleavage kobs at 10000 uM GlcN6P (glucosamine-6-phosphate [4]): 0.00273 ± 0.00053 s⁻¹

G44A U45A
kcat (glucosamine-6-phosphate [1]): 0.00079 ± 0.0001 s⁻¹ | KM (glucosamine-6-phosphate [5]): 3190 ± 750 µM | self-cleavage kobs at 640 uM GlcN6P (glucosamine-6-phosphate [2]): 0.000128 ± 4.2e-05 s⁻¹ | self-cleavage kobs at 2500 uM GlcN6P (glucosamine-6-phosphate [3]): 0.000439 ± 0.00012 s⁻¹ | self-cleavage kobs at 10000 uM GlcN6P (glucosamine-6-phosphate [4]): 0.000579 ± 0.0001 s⁻¹

G44A U45C
kcat (glucosamine-6-phosphate [1]): 0.000855 ± 6.9e-05 s⁻¹ | KM (glucosamine-6-phosphate [5]): 2540 ± 420 µM | self-cleavage kobs at 160 uM GlcN6P (glucosamine-6-phosphate [7]): 4.01e-05 ± 1.9e-05 s⁻¹ | self-cleavage kobs at 640 uM GlcN6P (glucosamine-6-phosphate [2]): 0.000171 ± 2.7e-05 s⁻¹ | self-cleavage kobs at 2500 uM GlcN6P (glucosamine-6-phosphate [3]): 0.000496 ± 0.00011 s⁻¹ | self-cleavage kobs at 10000 uM GlcN6P (glucosamine-6-phosphate [4]): 0.000674 ± 6.5e-05 s⁻¹

G32U C67U
kcat (glucosamine-6-phosphate [1]): 0.00034 ± 4.6e-05 s⁻¹ | KM (glucosamine-6-phosphate [5]): 1790 ± 580 µM | self-cleavage kobs at 640 uM GlcN6P (glucosamine-6-phosphate [2]): 0.000104 ± 1.3e-05 s⁻¹ | self-cleavage kobs at 2500 uM GlcN6P (glucosamine-6-phosphate [3]): 0.000166 ± 2.2e-05 s⁻¹ | self-cleavage kobs at 10000 uM GlcN6P (glucosamine-6-phosphate [4]): 0.000303 ± 2.5e-05 s⁻¹

G13U C67A
kcat (glucosamine-6-phosphate [1]): 0.000419 ± 9e-05 s⁻¹ | KM (glucosamine-6-phosphate [5]): 2040 ± 670 µM | self-cleavage kobs at 160 uM GlcN6P (glucosamine-6-phosphate [7]): 3.99e-05 ± 9e-06 s⁻¹ | self-cleavage kobs at 640 uM GlcN6P (glucosamine-6-phosphate [2]): 9.71e-05 ± 9.5e-06 s⁻¹ | self-cleavage kobs at 2500 uM GlcN6P (glucosamine-6-phosphate [3]): 0.000225 ± 2.3e-05 s⁻¹ | self-cleavage kobs at 10000 uM GlcN6P (glucosamine-6-phosphate [4]): 0.000504 ± 0.00015 s⁻¹

C68U C71U
kcat (glucosamine-6-phosphate [1]): 0.000142 ± 7.2e-06 s⁻¹ | KM (glucosamine-6-phosphate [5]): 1240 ± 180 µM | self-cleavage kobs at 640 uM GlcN6P (glucosamine-6-phosphate [2]): 4.62e-05 ± 4.3e-06 s⁻¹ | self-cleavage kobs at 2500 uM GlcN6P (glucosamine-6-phosphate [3]): 0.000103 ± 7.4e-06 s⁻¹ | self-cleavage kobs at 10000 uM GlcN6P (glucosamine-6-phosphate [4]): 0.000123 ± 6.6e-06 s⁻¹

G66U
kcat (glucosamine-6-phosphate [1]): 0.00275 ± 0.00056 s⁻¹ | KM (glucosamine-6-phosphate [5]): 2210 ± 580 µM | self-cleavage kobs at 40 uM GlcN6P (glucosamine-6-phosphate [6]): 5.79e-05 ± 1.2e-06 s⁻¹ | self-cleavage kobs at 160 uM GlcN6P (glucosamine-6-phosphate [7]): 0.000159 ± 5.1e-06 s⁻¹ | self-cleavage kobs at 640 uM GlcN6P (glucosamine-6-phosphate [2]): 0.00057 ± 1.2e-05 s⁻¹ | self-cleavage kobs at 2500 uM GlcN6P (glucosamine-6-phosphate [3]): 0.00179 ± 6.8e-05 s⁻¹ | self-cleavage kobs at 10000 uM GlcN6P (glucosamine-6-phosphate [4]): 0.00225 ± 6.3e-05 s⁻¹
